Measured values as given in publication PMC8126724, “Infant-Associated Bifidobacterial β-Galactosidases and Their Ability to Synthesize Galacto-Oligosaccharides” (Frontiers in Microbiology, 2021).
Each block holds one substance with its values, some of them ahead of it.

How the values were obtained:
[1] = target: BgaD β-galactosidase (B8809_0415) (B. longum subsp. longum NCIMB 8809); assay: SEC-MALS; Superose 6 10/300 G/L, 50 mM Tris-HCl, 150 mM NaCl, pH 7.5, 0.5 mL/min; dual-angle light scattering (RALS/LALS) and refractometer (OmniSec REVEAL); protein concentrations in Supplementary Table 1; native mass compared with the calculated monomer mass (with His-tag)
[2] = tested on: O=[N+]([O-])c1ccccc1O[C@@H]1O[C@H](CO)[C@H](O)[C@H](O)[C@H]1O; assay: o-nitrophenol release, A420; assay type: biochemical, Bifidobacterium longum subsp. longum; settings: 0.1 M sodium acetate pH 6.5, 40 °C, unit mM, not in table
Source text: o-nitrophenol release, A420 on BgaF

[3] = target: BgaA β-galactosidase (Bbr_0010) (B. breve UCC2003); assay: SEC-MALS; Superose 6 10/300 G/L, 50 mM Tris-HCl, 150 mM NaCl, pH 7.5, 0.5 mL/min; dual-angle light scattering (RALS/LALS) and refractometer (OmniSec REVEAL); protein concentrations in Supplementary Table 1; native mass compared with the calculated monomer mass (with His-tag)
[4] = target: BgaE β-galactosidase (B8809_0611) (B. longum subsp. longum NCIMB 8809); assay: as above
[5] = target: BgaB β-galactosidase (Bbr_0529) (B. breve UCC2003); assay: as above
[6] = target: BgaG β-galactosidase (Blon_2016) (B. longum subsp. infantis ATCC 15697); assay: as above
[7] = target: BgaC β-galactosidase (B216_08266) (B. bifidum LMG 13195); assay: as above

Substance: BgaD β-galactosidase (B8809_0415) (enzyme)
stoichiometry N [1]: 3

Substance: BgaF (Bifidobacterium longum subsp. longum)
Km [2]: 5.178 mM

Substance: BgaE β-galactosidase (B8809_0611) (enzyme)
stoichiometry N [4]: 4

Substance: BgaG β-galactosidase (Blon_2016) (enzyme)
stoichiometry N [6]: 3

Substance: BgaC β-galactosidase (B216_08266) (enzyme)
stoichiometry N [7]: 3

Now from value to substance:

stoichiometry N [3]: 2
Substance: BgaA β-galactosidase (Bbr_0010) (enzyme)

stoichiometry N [5]: 3
Substance: BgaB β-galactosidase (Bbr_0529) (enzyme)
